In publication PMC8602850, “SARS-CoV-2 Exacerbates COVID-19 Pathology Through Activation of the Complement and Kinin Systems” (Frontiers in Immunology, 2021):

B1: gC1qR, wild type, mature recombinant (receptor for the globular heads of C1q) (receptor, UniProt Q07021 74-282, looked up)
chain: LHTDGDKAFVDFLSDEIKEERKIQKHKTLPKMSGGWELELNGTEAKLVRKVAGEKITVTFNINNSIPPTFDGEEEPSQGQKVEEQEPELTSTPNFVVEVIKNDDGKKALVLDCHYPEDEVGQEDEAESDIFSIREVSFQSTGESEWKDTNYTLNTDSLDWALYDHLMDFLADRGVDNTFADELVELSTALEHQEYITFLEDLKSFVKSQ
modifications: biotin (biotinylated gC1qR in the ELISA; not said for the SPR surface)
notes: also called gC1qR-WT; biotinylated gC1qR
B2: synthetic peptide corresponding to the gC1qR-binding region from HK (peptide)
chain: HKHGHGHGKHKNKGKKNGKH

Columns and labels:
[1] = target: T1, SARS-CoV-2 nucleocapsid (N) protein, recombinant (SARS-CoV-2, UniProt P0DTC9 1-419); experiment: SPR; gC1qR-WT or gC1qR-ΔΔ immobilised; two-fold dilution series of analyte injected; reference-corrected sensorgrams fit to kinetic models; apparent KD; details: both partners purified
T1 construct: also called Nucleocapsid protein

[2] = target: B1; experiment: as above; details: both partners purified

B1
Kd [1]: 6 µM

B2
Kd [2]: 2000 µM
